Test [1] addresses T1, HLA-A24 molecule on the cell surface (HLA-A*2402) (human).
T1 construct: also called HLA-A24 antigen
Nature of the test: HLA-A24 stabilisation assay on T2-A24 cells, flow cytometry with C7709A2. A general note: Flow cytometry measures light scatter and fluorescence of single cells or particles in a stream.
Experimental: T2-A24 cells, which are HLA-A24-expressing T2 cells, were preincubated in a CO₂ incubator at 27° C. overnight. The cells collected were resuspended in Opti-MEM and plated on a round bottom 96 well plate (Corning) with about 1×10⁵ cells/200 μL per well. A subject peptide was added at concentrations of 0.33 μM, 1 μM, and 10 μM, and incubation was carried out in a CO₂ incubator at 27° C. for 3 hours and subsequently at 37° C. for 2.5 hours. Subsequently, the cells were subjected to centrifugation (380 g, 5 minutes) as they were on the plate, resuspended in 100 μL of a C7709A2 monoclonal antibody-producing hybridoma culture supernatant, and incubated on ice for 45 to 60 minutes. The cells were washed with ice-cooled PBS and then incubated together with an FITC-conjugated goat anti-mouse IgG antibody (KPL, Gaithersburg, Md.) on ice for 30 minutes.

For test [2], the target named is T1, HLA-A24 molecule on the cell surface …. Nature of the test: not clear: FIG. 7 has no binding assay panel.

With HWNDTRPAHF (also called HF10) [PVT1-derived natural antigen peptide of SEQ ID No: 1 (HWNDTRPAHF)], in test [1], the binding result is “binds”.
In the case of IFQGNVHNF (Synthetic peptide) [SNRNP40-derived natural peptide of SEQ ID No: 4 (IFQGNVHNF)], the binding result in test [2] is given as “binds”.
On to RYGNVSHF (Synthetic peptide; also called RF8) [SUV39H2-derived natural antigen peptide of SEQ ID No: 2 (RYGNVSHF)], for which, in test [1], the binding result is “binds”.

The values above are taken from US20190117751A1 (SAPPORO MEDICAL UNIVERSITY, published 2019).
